Holding throughout (test): cell-based or functional assay
One assay concerns the target GLP-1 receptor (UniProt P43220 24-463, limits assumed).
In the next assay the target is glucagon receptor (UniProt P47871 26-477, limits assumed).
The next assay addresses T1, GIP receptor (UniProt P48546 22-466).
T1 sequence (looked up): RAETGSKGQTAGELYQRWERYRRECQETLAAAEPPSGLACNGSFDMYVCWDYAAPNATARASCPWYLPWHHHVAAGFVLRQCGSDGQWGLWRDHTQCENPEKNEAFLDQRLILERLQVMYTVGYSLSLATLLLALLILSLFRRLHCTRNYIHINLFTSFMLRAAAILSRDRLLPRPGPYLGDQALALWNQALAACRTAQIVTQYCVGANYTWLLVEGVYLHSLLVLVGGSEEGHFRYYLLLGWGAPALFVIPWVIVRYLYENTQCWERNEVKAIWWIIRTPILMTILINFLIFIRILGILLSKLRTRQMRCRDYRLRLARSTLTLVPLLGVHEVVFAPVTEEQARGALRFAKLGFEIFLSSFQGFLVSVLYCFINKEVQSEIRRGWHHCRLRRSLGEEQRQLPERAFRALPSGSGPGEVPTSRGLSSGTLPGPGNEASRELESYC

Where no end group is shown, it is not given here. [ ]: non-standard residue; d: D form. The star is where a group is joined. PEG 40 kDa = PEG (40 kDa) covalently attached to Cys; Myristoyl = CCCCCCCCCCCCCC(=O)*; Abu = CC[C@H](N)C(=O)O; Aib = CC(C)(N)C(=O)O

Chain of glucagon receptor (P47871 26-477 limits assumed): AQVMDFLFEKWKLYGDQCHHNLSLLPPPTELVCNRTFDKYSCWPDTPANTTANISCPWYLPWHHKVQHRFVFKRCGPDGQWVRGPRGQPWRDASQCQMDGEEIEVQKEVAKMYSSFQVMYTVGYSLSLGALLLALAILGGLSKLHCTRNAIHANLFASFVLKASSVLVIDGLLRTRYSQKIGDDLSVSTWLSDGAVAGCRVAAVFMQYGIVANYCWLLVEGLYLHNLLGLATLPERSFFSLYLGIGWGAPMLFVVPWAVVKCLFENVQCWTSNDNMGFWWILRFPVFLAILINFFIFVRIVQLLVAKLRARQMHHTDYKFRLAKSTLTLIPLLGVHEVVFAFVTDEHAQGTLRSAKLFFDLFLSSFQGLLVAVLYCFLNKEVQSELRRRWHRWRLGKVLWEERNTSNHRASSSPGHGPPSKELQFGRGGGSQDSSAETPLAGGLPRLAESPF

B1: mt-324 (peptide)
peptide: Y[Aib]QGTFSSDYSIYLDKQAA[Aib]EFVNWLLAGGPSSGAPPPSC-NH2
modifications: N-terminus assumed
SMILES: CC[C@H](C)[C@H](NC(=O)[C@H](CO)NC(=O)[C@H](Cc1ccc(O)cc1)NC(=O)[C@H](CC(=O)O)NC(=O)[C@H](CO)NC(=O)[C@H](CO)NC(=O)[C@H](Cc1ccccc1)NC(=O)[C@@H](NC(=O)CNC(=O)[C@H](CCC(N)=O)NC(=O)C(C)(C)NC(=O)[C@@H](N)Cc1ccc(O)cc1)[C@@H](C)O)C(=O)N[C@@H](Cc1ccc(O)cc1)C(=O)N[C@@H](CC(C)C)C(=O)N[C@@H](CC(=O)O)C(=O)N[C@@H](CCCCN)C(=O)N[C@@H](CCC(N)=O)C(=O)N[C@@H](C)C(=O)N[C@@H](C)C(=O)NC(C)(C)C(=O)N[C@@H](CCC(=O)O)C(=O)N[C@@H](Cc1ccccc1)C(=O)N[C@H](C(=O)N[C@@H](CC(N)=O)C(=O)N[C@@H](Cc1c[nH]c2ccccc12)C(=O)N[C@@H](CC(C)C)C(=O)N[C@@H](CC(C)C)C(=O)N[C@@H](C)C(=O)NCC(=O)NCC(=O)N1CCC[C@H]1C(=O)N[C@@H](CO)C(=O)N[C@@H](CO)C(=O)NCC(=O)N[C@@H](C)C(=O)N1CCC[C@H]1C(=O)N1CCC[C@H]1C(=O)N1CCC[C@H]1C(=O)N[C@@H](CO)C(=O)N[C@@H](CS)C(N)=O)C(C)C
Usually EC50 stands for the concentration at which the effect is half-maximal. Low readings indicate higher potency in that assay, high ones lower potency in that assay. With B1, the concentration giving a half-maximal response (EC50) was found to be 0.23 nM with GLP-1 receptor, 1.23 nM with glucagon receptor and 0.0387 nM in the assay with GIP receptor. Besides, the values for the relative activity in the assay with GLP-1 receptor, with glucagon receptor and with GIP receptor were 9.68%, 6.41% and 30.2%, respectively.

B2: mt-339 (peptide)
peptide: Y[Aib]EGTFTSDYSIYLDKQAA[Aib]EFVNWLLAGGPSSGAPPPSK(Myristoyl)C-NH2
Turning to B2, the “EC50” value in the assay with GLP-1 receptor came to 0.0092 nM; with glucagon receptor, 8.72 nM; with GIP receptor, 0.004 nM.

B3: mt-331 (peptide)
peptide: Y[Aib]EGTFTSDYSIYLDKQAA[Aib]EFVC(PEG 40 kDa)WLLAGGPSSGAPPPSK-NH2
modifications: also: PEG linkage structure not given here
On to B3, for which the results for the “EC50” value with GLP-1 receptor, in the assay with glucagon receptor and with GIP receptor were 0.448 nM, 408 nM and 0.0968 nM, respectively. Besides, the relative activity in the assay with GLP-1 receptor came out at 4.53%; in the assay with glucagon receptor it was 0.02%; in the assay with GIP receptor, 10.6%.

B4: mt-325 (peptide)
peptide: Y[Aib]QGTF[Abu]SDYSIYLDKQAA[Aib]EFVNWLLAGGPSSGAPPPSC-NH2
modifications: N-terminus assumed
SMILES: CC[C@H](NC(=O)[C@H](Cc1ccccc1)NC(=O)[C@@H](NC(=O)CNC(=O)[C@H](CCC(N)=O)NC(=O)C(C)(C)NC(=O)[C@@H](N)Cc1ccc(O)cc1)[C@@H](C)O)C(=O)N[C@@H](CO)C(=O)N[C@@H](CC(=O)O)C(=O)N[C@@H](Cc1ccc(O)cc1)C(=O)N[C@@H](CO)C(=O)N[C@H](C(=O)N[C@@H](Cc1ccc(O)cc1)C(=O)N[C@@H](CC(C)C)C(=O)N[C@@H](CC(=O)O)C(=O)N[C@@H](CCCCN)C(=O)N[C@@H](CCC(N)=O)C(=O)N[C@@H](C)C(=O)N[C@@H](C)C(=O)NC(C)(C)C(=O)N[C@@H](CCC(=O)O)C(=O)N[C@@H](Cc1ccccc1)C(=O)N[C@H](C(=O)N[C@@H](CC(N)=O)C(=O)N[C@@H](Cc1c[nH]c2ccccc12)C(=O)N[C@@H](CC(C)C)C(=O)N[C@@H](CC(C)C)C(=O)N[C@@H](C)C(=O)NCC(=O)NCC(=O)N1CCC[C@H]1C(=O)N[C@@H](CO)C(=O)N[C@@H](CO)C(=O)NCC(=O)N[C@@H](C)C(=O)N1CCC[C@H]1C(=O)N1CCC[C@H]1C(=O)N1CCC[C@H]1C(=O)N[C@@H](CO)C(=O)N[C@@H](CS)C(N)=O)C(C)C)[C@@H](C)CC
Turning to B4, the figures for the “EC50” value in the assay with GLP-1 receptor, in the assay with glucagon receptor and with GIP receptor were 2.68 nM, 0.0915 nM and 0.0105 nM, respectively. Besides, the figures for the relative activity with GLP-1 receptor, in the assay with glucagon receptor and in the assay with GIP receptor were 0.83%, 86.5% and 111%, respectively.

The values are drawn from US20110166062A1 (INDIANA UNIVERSITY RESEARCH AND TECHNOLOGY, published 2011).
